Target: tetanus toxoid (UniProt P04958 2-1315)
Assay: ELISA, crude Fab supernatant, detected with 9E10

Chain of tetanus toxoid (P04958 2-457 limits assumed, chain 1 of 2): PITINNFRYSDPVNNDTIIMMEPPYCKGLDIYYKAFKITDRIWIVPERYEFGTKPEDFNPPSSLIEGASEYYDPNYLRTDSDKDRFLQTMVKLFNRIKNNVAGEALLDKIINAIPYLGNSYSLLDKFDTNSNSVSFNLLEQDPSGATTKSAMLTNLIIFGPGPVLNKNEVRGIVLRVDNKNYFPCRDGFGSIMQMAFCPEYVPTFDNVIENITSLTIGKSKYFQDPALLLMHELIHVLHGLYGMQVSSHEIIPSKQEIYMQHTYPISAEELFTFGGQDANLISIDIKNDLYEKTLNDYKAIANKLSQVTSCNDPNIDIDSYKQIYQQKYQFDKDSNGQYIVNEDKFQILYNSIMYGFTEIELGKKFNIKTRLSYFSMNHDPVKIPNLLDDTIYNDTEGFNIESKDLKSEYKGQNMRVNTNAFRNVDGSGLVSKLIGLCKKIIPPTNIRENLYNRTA
Chain of tetanus toxoid (P04958 458-1315 limits assumed, chain 2 of 2): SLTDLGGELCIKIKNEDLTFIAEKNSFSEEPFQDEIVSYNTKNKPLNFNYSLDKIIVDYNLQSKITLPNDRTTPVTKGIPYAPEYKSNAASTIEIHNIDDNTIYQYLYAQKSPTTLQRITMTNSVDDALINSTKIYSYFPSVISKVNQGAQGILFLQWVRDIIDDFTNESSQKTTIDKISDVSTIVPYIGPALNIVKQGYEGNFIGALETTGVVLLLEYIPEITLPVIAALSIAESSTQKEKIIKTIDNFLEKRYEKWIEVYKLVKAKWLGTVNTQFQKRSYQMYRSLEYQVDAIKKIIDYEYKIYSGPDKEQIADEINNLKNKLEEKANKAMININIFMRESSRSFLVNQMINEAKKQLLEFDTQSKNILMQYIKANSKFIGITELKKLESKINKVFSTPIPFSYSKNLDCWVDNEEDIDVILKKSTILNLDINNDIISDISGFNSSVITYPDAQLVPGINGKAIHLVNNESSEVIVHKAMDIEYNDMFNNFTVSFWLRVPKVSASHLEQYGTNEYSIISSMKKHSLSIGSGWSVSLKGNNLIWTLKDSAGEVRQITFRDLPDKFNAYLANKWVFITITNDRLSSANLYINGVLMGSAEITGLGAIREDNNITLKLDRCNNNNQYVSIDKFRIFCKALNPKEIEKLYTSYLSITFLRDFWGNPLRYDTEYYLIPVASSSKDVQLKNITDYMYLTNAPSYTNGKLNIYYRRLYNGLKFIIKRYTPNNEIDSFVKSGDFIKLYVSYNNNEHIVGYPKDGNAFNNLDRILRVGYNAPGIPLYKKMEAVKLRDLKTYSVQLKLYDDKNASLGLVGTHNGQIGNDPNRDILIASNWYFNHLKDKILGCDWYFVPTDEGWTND

Row | Binder | binding result
1 | Fab clone 163.5 (Fab, V domains shown) VH: VQLLEQSGAEVKRPGASVTISCQASRQDFSGQYIHWVRQAPGQGFEWMGIINPSGGSANYAPKFKGRLTMSRDSSTDTVYMTLTSLTSEDTAVYYCLLQALKHWGQGTLVAVSS VL: AAELTQSPDSLAVALGERATINCKSSQSVLYSLNNKNYLAWYQQKPGQPPKLLIHWASTRESGVPDRFSGSGSETDFTLTISSLQAEDVAVYYCQQYYTTPYTFGQGTKLEIK | no binding (tested: antigen coated at 1 µg/ml)
2 | Fab clone 163.17 (Fab, V domains shown, Human IgG1 kappa Fab (MCO1 vector, soluble from E. coli HB2151), myc tag on the C terminus of the heavy chain) VH: VQLLEQSGAEVKRPGASVTISCRASRQDFSGQYIHWVRQAPGQGFEWMGIINPSGGSANYAPKFKGRLTMSRDSSTETVYMTLTSLTSEDTAVYYCLLQALKHWGQGTLVGPSS VL: not shown | no binding (tested: antigen coated at 1 µg/ml)
3 | Fab clone 163.24 (Fab, V domains shown, Human IgG1 kappa Fab (MCO1 vector, soluble from E. coli HB2151), myc tag on the C terminus of the heavy chain) VH: VQLLEQSGAEVKRPGASVTISCQASRQNFSGQYIHWVRQAPGQGLEWMGIINPSGGSANYAPRFKGRLSMSRDSSTDTAYLTLTSLTSEDTAVYFCLLQSLKHWGQGTLVAVSS VL: not shown | no binding (tested: antigen coated at 1 µg/ml)
4 | Fab clone 163.1 (Fab, V domains shown, myc tag on the C terminus of the heavy chain) VH: VQLLEQSGAEMKRPGASVTISCQASRQTFSGQYIHWVRQAPGQGLEWMGVINPSGGSANYAPSFQGRLSMSRDASTNTVYMKLSSLTSEDTAVYYCLSQALKYWGQGTLVAVSS VL: AAELTQSPDSLAVSLGERATINCKSNQSVLYNSNSKNYLAWYQQKPGQPPKLLIYWASTRESGVPDRFSGSGSGTDFTLTITSLQAEDVAVYYCQQYFSSPYTFGQGTKLEIK | no binding (tested: antigen coated at 1 µg/ml)

From US20070128672A1 (ST VINCENT S HOSPITAL SYDNEY, published 2007)
